The values that follow come from patent US20240263191.

For the data set, the target named is KLF15 (hKLF15) (Homo sapiens) (UniProt Q9UIH9). Nature of the data set: cell_activity. To be noted: AAV8-GNAT1-hKLF15 subretinal in pig, 2x10^10 gc, 15 days; 38% repression of protein.
Sequence of KLF15 (hKLF15) (Homo sapiens) (Q9UIH9 whole entry, the tested form may be a part): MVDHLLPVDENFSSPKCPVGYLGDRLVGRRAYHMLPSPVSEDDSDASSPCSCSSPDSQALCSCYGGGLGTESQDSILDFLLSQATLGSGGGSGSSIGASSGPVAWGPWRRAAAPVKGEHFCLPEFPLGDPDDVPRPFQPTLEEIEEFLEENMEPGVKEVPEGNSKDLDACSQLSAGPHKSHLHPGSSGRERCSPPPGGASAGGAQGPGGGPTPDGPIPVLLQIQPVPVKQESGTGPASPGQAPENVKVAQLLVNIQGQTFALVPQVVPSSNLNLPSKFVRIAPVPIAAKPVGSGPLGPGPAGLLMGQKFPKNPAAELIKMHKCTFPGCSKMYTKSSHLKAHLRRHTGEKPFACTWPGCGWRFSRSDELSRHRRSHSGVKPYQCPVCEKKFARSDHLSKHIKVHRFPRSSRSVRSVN

For the substance “endogenous porcine Rho promoter (hRHO-cis highly conserved)”, the activity (% repression of Rho transcript) turned out to be 45.
